# In patent publication US20240131162A1 (MacroGenics, published 2024):
# Substitutions are numbered along the chain they refer to. Numbers in names are those of the source.
# T1: CD32A^H (UniProt P12318 34-217, limits assumed)
# T1 construct: also called FcγRIIA
# T1 sequence (looked up): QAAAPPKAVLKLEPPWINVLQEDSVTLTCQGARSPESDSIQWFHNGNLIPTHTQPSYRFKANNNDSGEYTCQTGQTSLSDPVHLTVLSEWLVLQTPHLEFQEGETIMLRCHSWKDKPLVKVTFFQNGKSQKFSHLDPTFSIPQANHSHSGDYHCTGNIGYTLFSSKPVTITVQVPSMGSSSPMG
# T2: CD32B (FcγRII-B) (UniProt P31994 43-217, limits assumed)
# T2 sequence (looked up): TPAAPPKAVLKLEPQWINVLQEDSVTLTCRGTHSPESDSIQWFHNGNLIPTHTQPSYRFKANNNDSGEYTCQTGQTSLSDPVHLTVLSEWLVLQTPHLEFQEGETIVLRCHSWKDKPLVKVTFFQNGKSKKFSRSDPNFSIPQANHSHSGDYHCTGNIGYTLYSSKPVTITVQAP
# B1: ch4D5-FcMT1 (antibody, human IgG1, kappa)
# heavy: QVQLQQSGPELVKPGASLKLSCTASGFNIKDTYIHWVKQRPEQGLEWIGRIYPTNGYTRYDPKFQDKATITADTSSNTAYLQVSRLTSEDTAVYYCSRWGGDGFYAMDYWGQGASVTVSSASTKGPSVFPLAPSSKSTSGGTAALGCLVKDYFPEPVTVSWNSGALTSGVHTFPAVLQSSGLYSLSSVVTVPSSSLGTQTYICNVNHKPSNTKVDKRVEPKSCDKTHTCPPCPAPELLGGPSVFLLPPKPKDTLMISRTPEVTCVVVDVSHEDPEVKFNWYVDGVEVHNAKTKPPEEQYNSTLRVVSILTVLHQDWLNGKEYKCKVSNKALPAPIEKTISKAKGQPREPQVYTLPPSRDELTKNQVSLTCLVKGFYPSDIAVEWESNGQPENNYKTTPLVLDSDGSFFLYSKLTVDKSRWQQGNVFSCSVMHEALHNHYTQKSLSLSPGK
# light: DIVMTQSHKFMSTSVGDRVSITCKASQDVNTAVAWYQQKPGHSPKLLIYSASFRYTGVPDRFTGSRSGTDFTFTISSVQAEDLAVYYCQQHYTTPPTFGGGTKVEIKRTVAAPSVFIFPPSDEQLKSGTASVVCLLNNFYPREAKVQWKVDNALQSGNSQESVTEQDSKDSTYSLSSTLTLSKADYEKHKVYACEVTHQGLSSPVTKSFNRGEC
# B2: ch4D5-wild-type Fc (antibody, human IgG1, kappa)
# heavy: not shown
# light: B1 light
# notes: Chimeric 4D5; also called ch4D5-FcWT; WT
# B3: Fc mutant 12: F243L R292P Y300L (other, UniProt P01857-1 104-330, looked up)
# chain: DKTHTCPPCPAPELLGGPSVFLLPPKPKDTLMISRTPEVTCVVVDVSHEDPEVKFNWYVDGVEVHNAKTKPPEEQYNSTLRVVSVLTVLHQDWLNGKEYKCKVSNKALPAPIEKTISKAKGQPREPQVYTLPPSRDELTKNQVSLTCLVKGFYPSDIAVEWESNGQPENNYKTTPPVLDSDGSFFLYSKLTVDKSRWQQGNVFSCSVMHEALHNHYTQKSLSLSPGK
# notes: domain: Fc
# B4: Fc mutant 18: F243L R292P Y300L V305I P396L (other, UniProt P01857-1 104-330, looked up)
# chain: B3 chain with V85I, P176L
# notes: domain: Fc; Same substitutions as the Fc of ch4D5-FcMT1
# B5: Fc mutant 16: F243L R292P Y300L P396L (other, UniProt P01857-1 104-330, looked up)
# chain: B3 chain with P176L
# notes: domain: Fc
# B6: Fc mutant 15: R292P V305I P396L (other, UniProt P01857-1 104-330, looked up)
# chain: B3 chain with L23F, L80Y, V85I, P176L
# notes: domain: Fc
# B7: Fc mutant 17: F243L R292P V305I P396L (other, UniProt P01857-1 104-330, looked up)
# chain: B3 chain with L80Y, V85I, P176L
# notes: domain: Fc
# B8: Fc mutant 13: F243L R292P V305I (other, UniProt P01857-1 104-330, looked up)
# chain: B3 chain with L80Y, V85I
# notes: domain: Fc
# B9: Fc mutant 14: F243L R292P P396L (other, UniProt P01857-1 104-330, looked up)
# chain: B3 chain with L80Y, P176L
# notes: domain: Fc
# B10: Fc variant F243L R255L D270E P396L (other, UniProt P01857-1 104-330, looked up)
# chain: B3 chain with R35L, D50E, P72R, L80Y, P176L
# notes: domain: Fc
# B11: Fc variant F243L D270E P396L Q419H (other, UniProt P01857-1 104-330, looked up)
# chain: B3 chain with D50E, P72R, L80Y, P176L, Q199H
# notes: domain: Fc
# B12: Fc variant F243L D270E G316D R416G (other, UniProt P01857-1 104-330, looked up)
# chain: B3 chain with D50E, P72R, L80Y, G96D, R196G
# notes: domain: Fc
# B13: Fc variant F243I R292P Y300L V305I P396L (other, UniProt P01857-1 104-330, looked up)
# chain: B3 chain with L23I, V85I, P176L
# notes: domain: Fc; 'F243I' as printed
# B14: Fc variant R255L D270E Y300L P396L (other, UniProt P01857-1 104-330, looked up)
# chain: B3 chain with L23F, R35L, D50E, P72R, P176L
# notes: domain: Fc
# B15: Fc variant F243L D270E K392T P396L (other, UniProt P01857-1 104-330, looked up)
# chain: B3 chain with D50E, P72R, L80Y, K172T, P176L
# notes: domain: Fc
# B16: Fc variant F243L P247L N421K (other, UniProt P01857-1 104-330, looked up)
# chain: B3 chain with P27L, P72R, L80Y, N201K
# notes: domain: Fc
# B17: Fc variant D270E P396L G316D R416G (other, UniProt P01857-1 104-330, looked up)
# chain: B3 chain with L23F, D50E, P72R, L80Y, G96D, P176L, R196G
# notes: domain: Fc; also called D270E G316D P396L R416G
# B18: Fc variant P247L D270E N421K (other, UniProt P01857-1 104-330, looked up)
# chain: B3 chain with L23F, P27L, D50E, P72R, L80Y, N201K
# notes: domain: Fc
# B19: Fc variant D270E K392T P396L (other, UniProt P01857-1 104-330, looked up)
# chain: B3 chain with L23F, D50E, P72R, L80Y, K172T, P176L
# notes: domain: Fc
# B20: Fc variant F243L P247L D270E N421K (other, UniProt P01857-1 104-330, looked up)
# chain: B3 chain with P27L, D50E, P72R, L80Y, N201K
# notes: domain: Fc
# B21: Fc variant R255L D270E P396L (other, UniProt P01857-1 104-330, looked up)
# chain: B3 chain with L23F, R35L, D50E, P72R, L80Y, P176L
# notes: domain: Fc
# B22: Fc variant D270E G316D R416G (other, UniProt P01857-1 104-330, looked up)
# chain: B3 chain with L23F, D50E, P72R, L80Y, G96D, R196G
# notes: domain: Fc
# B23: Fc variant D270E P396L Q419H (other, UniProt P01857-1 104-330, looked up)
# chain: B3 chain with L23F, D50E, P72R, L80Y, P176L, Q199H
# notes: domain: Fc
# B24: Fc variant R255L D270E R292G P396L (other, UniProt P01857-1 104-330, looked up)
# chain: B3 chain with L23F, R35L, D50E, P72G, L80Y, P176L
# notes: domain: Fc
# Molecular target: human CD16A (FcγRIII-A) (human, UniProt P08637 17-208, limits assumed)
# Sequence (P08637 17-208 limits assumed): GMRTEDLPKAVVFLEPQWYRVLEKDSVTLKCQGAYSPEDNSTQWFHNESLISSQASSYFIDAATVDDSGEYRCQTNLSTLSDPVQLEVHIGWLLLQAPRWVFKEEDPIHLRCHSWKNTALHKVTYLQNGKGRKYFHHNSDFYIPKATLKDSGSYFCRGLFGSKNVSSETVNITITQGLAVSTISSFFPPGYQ
# Assay: method not stated
row,fold increase in binding,Binder
1,10 fold,B1

# Molecular target: T3, HER-2 (human, UniProt P04626 23-652, limits assumed)
# T3 construct: also called HER2/neu; erbB-2
# Assay: SPR (BIAcore), HER-2 immobilised, antibody as analyte
# Method: The kinetic parameters of the binding of eluted and purified antibodies were analyzed using a BIACORE® assay (BIAcore instrument 1000, BIAcore Inc., Piscataway, N.J.) and associated software. HER-2 was immobilized on one of the four flow cells (flow cell 2) of a sensor chip surface through amine coupling chemistry (by modification of carboxymethyl groups with mixture of NHS/EDC) such that about 1000 response units (RU) of receptor was immobilized on the surface. Following this, the unreacted active esters were “capped off” with an injection of 1 M Et-NH2.
koff,kon,Binder
~3.2e-07 s⁻¹,170000 M⁻¹ s⁻¹,B2

# Molecular target: T4, CD16A F158 (human, UniProt P08637 17-208, limits assumed)
# T4 construct: construct not described
# T4 sequence (P08637 17-208 limits assumed): as above
# Assay: SPR (BIAcore), koff compared with wild-type Fc
row,WT koff/mutant koff,Binder
1,4.6 ratio,B3
2,8.3 ratio,B4
3,5.6 ratio,B5
4,1.9 ratio,B6
5,2.3 ratio,B7
6,1.4 ratio,B8

# Molecular target: T1, CD32A^H
# Assay: SPR (BIAcore), koff compared with wild-type Fc
row,WT koff/mutant koff,Binder
1,1 ratio,B3
2,3.2 ratio,B4
3,1.7 ratio,B5
4,1.5 ratio,B6
5,1.4 ratio,B9
6,0.8 ratio,B7
7,0.2 ratio,B8

# Molecular target: T2, CD32B (FcγRII-B)
# Assay: SPR (BIAcore), koff compared with wild-type Fc
row,WT koff/mutant koff,Binder
1,0.6 ratio,B3
2,1.4 ratio,B4
3,1.1 ratio,B5
4,0.9 ratio,B6
5,0.4 ratio,B9
6,0.4 ratio,B7
7,0.1 ratio,B8

# Molecular target: T5, CD16A V158 (human, UniProt P08637 17-208, limits assumed)
# T5 construct: construct not described
# T5 sequence (P08637 17-208 F176V limits assumed): as the sequence (P08637 17-208 limits assumed) above, with F160V counted along it
# Assay: SPR (BIAcore), koff compared with wild-type Fc
row,WT koff/mutant koff,Binder
1,7.4 ratio,B3
2,10.1 ratio,B4
3,10.1 ratio,B5
4,1.9 ratio,B6
5,6.3 ratio,B9
6,4 ratio,B7
7,2.6 ratio,B8

# Molecular target: T4, CD16A F158
# Assay: method not stated at Table 3
row,binding relative to wild-type Fc,Binder
1,1.64 fold,B10
2,1.15 fold,B11
3,1.34 fold,B12
4,3.12 fold,B13
5,1.74 fold,B14
6,2.44 fold,B15
7,1.71 fold,B16
8,8.25 fold,B4
9,0.94 fold,B17
10,2.46 fold,B18
11,5.62 fold,B5
12,1.9 fold,B6
13,2.28 fold,B19
14,2.53 fold,B7
15,3.45 fold,B20
16,1.65 fold,B21
17,2.49 fold,B22
18,1.43 fold,B8

# Molecular target: T2, CD32B (FcγRII-B)
# Assay: method not stated at Table 3
row,binding relative to wild-type Fc,Binder
1,0.38 fold,B10
2,0.68 fold,B23
3,0.26 fold,B11
4,0.2 fold,B12
5,1.05 fold,B13
6,0.87 fold,B14
7,0.44 fold,B15
8,0.17 fold,B16
9,1.38 fold,B4
10,1.07 fold,B17
11,0.58 fold,B18
12,1.07 fold,B5
13,0.92 fold,B6
14,0.79 fold,B19
15,0.4 fold,B7
16,0.65 fold,B24
17,0.32 fold,B20
18,0.87 fold,B21
19,0.78 fold,B22

# Molecular target: T5, CD16A V158
# Assay: method not stated at Table 3
row,binding relative to wild-type Fc,Binder
1,1.75 fold,B10
2,1.64 fold,B23
3,1.46 fold,B11
4,1.5 fold,B12
5,1.52 fold,B14
6,3.16 fold,B15
7,1.89 fold,B16
8,10.1 fold,B4
9,1.22 fold,B17
10,1.89 fold,B18
11,10.1 fold,B5
12,1.85 fold,B6
13,1.81 fold,B19
14,5.37 fold,B7
15,2.3 fold,B20
16,1.34 fold,B21
17,2.18 fold,B22
18,2.56 fold,B8
